Here are results for four proteins from article PMC4113996, “Prediction and characterization of enzymatic activities guided by sequence similarity and genome neighborhood networks” (eLife, 2014).

Holding throughout (assay): purified protein
Substrate in data set [1]: O=C(O)C1=NCCC1
Type of data set: biochemical, Bacillus cereus. The note with it: 0.16 mM NADPH, 50 mM Tris-HCl pH 7.6, 25°C.

Substrate in data set [2]: O=C(O)C1=NCCC1
It counts as biochemical, Agrobacterium fabrum. The note with it: 0.16 mM NADPH, 50 mM Tris-HCl pH 7.6, 25°C.

Substrate in data set [3]: O=C(O)[C@@H]1C[C@@H](O)CN1
The note with it: 4HypE reaction (start from t4Hyp as in Figure 1), 50 mM Na-phosphate pH 8.0, 1 mM DTT, 25°C.

Substrate in data set [4]: O=C(O)C1=NCCC1
Type of data set: biochemical, Pseudomonas aeruginosa. As to conditions: 0.16 mM NADPH, 50 mM Tris-HCl pH 7.6, 25°C.

B1: BC_0906 (Q81HB0) (Bacillus cereus ATCC 14579) (protein)
chain: MLVISANEQRNLVNMNEVIEYAALALKEFSAERTITPIRGSLPFANEQNTALIMPSVAEGLEALGVKIVTVVPQNKQIGKKTINGIVMLSDFQAGEPLALLEGSYLTMIRTGALSGVATKYLARHNAKTLCIIGTGEQAKGIAEAIFAVRDIEKVILYNRTEEKAYAFAQYIQEKFGKPAYVYKDPNEAVREADIIVTTTNATTPVFSEILQKGVHVNAVGSFRPSMQELPSHAIAKANKVVVESKEAALDETGDLQVPIKEGLFKANAIHAELGQIISGEKAGRENDEEITIFKSVGLAVVDIIVAKYLYERALEQGVGNKIEF
Regarding B1, in “purified protein [1]”, the Michaelis-Menten constant (Km) worked out at 470 ± 100 µM and the turnover number (kcat) is 15 ± 1 s⁻¹.

B2: Atu4676 (Q7CVK1) (Agrobacterium fabrum str. C58) (protein)
chain: MSDTTTLTIEALFQRVESIFLRAGLNAVQSGALARVITAGERDACKSHGIYRIEGALRTVKAAKVKPDAIPEVAEDDGTAIVKVNAMGGFANPAFELGLPALAERAKRLGLAALVINDCTHFSALWPEVEGLTSNGLAGLVMCPSYSTVAPTGGTKPLLGTNPFAFGWPRKDTSPYVFDFATSVAARGEIELHRRARKSLPEGWAVDADGNPTTDPEAALAGAMLPFGGHKGSAIGTMIELLAGIMIGDLTSPEVLDYLGTTTLAPFHGELIVAFSPEAFAKGRPGDPFQRAEVLFEAIIGQGARLPSGRRFAARAKSESEGITLTAAEMAGLDRLLEKGLDAVS
As to B2, in the data set “purified protein [2]”, the Km was 330 ± 40 µM and the catalytic constant (kcat) came to 32 ± 1 s⁻¹.

B3: Avi_0518 (B9JQV3) (Allorhizobium ampelinum S4) (protein)
chain: MRWKRMMQLLDVHCEGEIGKVAIGGVPKIPGDTVADQLHWLNTDPKGRELRHFLVLEPRGAPIGSVNLLLPAKDSRADAAFIILQPDQAHASSGSNSICVTTALLESGMIEMQEPETVVMLETAAGLVKAVAQCRDGHCDSVTLTMVPSFVHELDAQIATESWGEIRFDLAYGGVFYALVDVRQLGLTIEPGNARRLVEAGMLLKGEINQRIQVVHPDIPAISGVAYVMFRDEDPDGAVRTCTTMWPGRVDRSPCGTGNSANLATLHARGRVKPGDSFLSRSIIGSQFTVGLQGLTTVAGRSAVIPTITGRGFTYGIHQVALDAFDPLGGGFVLTDVWGAAAETIKI
Turning to B3, the Km in the data set “purified protein [3]” is 5600 ± 500 µM.

B4: PA1252 (Q9I492) (Pseudomonas aeruginosa PAO1) (protein)
chain: MIRMTLDEVRELAVRILRRHAFSEAHVQAVADTLVAGERDECASHGIWRLLGCIATLKAGKVSADAEPELHDIAPGLLRVDAHGGFSQCAFRLGLPHLLEKARSQGIAAMAVNRCVHFSALWVEVEALTEAGLVALATTPSHAWVAPAGGRKPIFGTNPIAFGWPRPDGPPFVFDFATSAVARGEIQLHERAGKPIPLGWGVDEQGEPTTDASAALRGAMLTFGGHKGSALAAMVELLAGPLIGDLTSAESLAYDEGSRSSPYGGELLIAIDPRRMLGASAEEHLARAETLFEGIVEQGARLPSQRRFEARERSARDGVTIPEALHRELLALLE
For the protein B4, in the data set “purified protein [4]”, the Km was 410 ± 60 µM and the kcat amounted to 1.6 ± 0.05 s⁻¹.

A word on the Km: it is the substrate concentration at which the rate is half of its maximum. As usually defined, the kcat is the maximal rate divided by the concentration of active sites.
